The target of assay [1] is T1, Ran (recombinant human wild-type Ran, charged with GTP or GDP) (human, UniProt P62826 1-216). Nature of the assay: co-IP.
The target in assay [2] is T1, Ran (recombinant human wild-type Ran, …). Nature of the assay: co-IP. The source holds these as a separate data set.

Read-outs that look alike come from different tables or passages of the source.

B1: hGFP–CAS (human CAS fused to hGFP) (natural protein)
chain: MELSDANLQTLTEYLKKTLDPDPAIRRPAEKFLESVEGNQNYPLLLLTLLEKSQDNVIKVCASVTFKNYIKRNWRIVEDEPNKICEADRVAIKANIVHLMLSSPEQIQKQLSDAISIIGREDFPQKWPDLLTEMVNRFQSGDFHVINGVLRTAHSLFKRYRHEFKSNELWTEIKLVLDAFALPLTNLFKATIELCSTHANDASALRILFSSLILISKLFYSLNFQDLPEFFEDNMETWMNNFHTLLTLDNKLLQTDDEEEAGLLELLKSQICDNAALYAQKYDEEFQRYLPRFVTAIWNLLVTTGQEVKYDLLVSNAIQFLASVCERPHYKNLFEDQNTLTSICEKVIVPNMEFRAADEEAFEDNSEEYIRRDLEGSDIDTRRRAACDLVRGLCKFFEGPVTGIFSGYVNSMLQEYAKNPSVNWKHKDAAIYLVTSLASKAQTQKHGITQANELVNLTEFFVNHILPDLKSANVNEFPVLKADGIKYIMIFRNQVPKEHLLVSIPLLINHLQAESIVVHTYAAHALERLFTMRGPNNATLFTAAEIAPFVEILLTNLFKALTLPGSSENEYIMKAIMRSFSLLQEAIIPYIPTLITQLTQKLLAVSKNPSKPHFNHYMFEAICLSIRITCKANPAAVVNFEEALFLVFTEILQNDVQEFIPYVFQVMSLLLETHKNDIPSSYMALFPHLLQPVLWERTGNIPALVRLLQAFLERGSNTIASAAADKIPGLLGVFQKLIASKANDHQGFYLLNSIIEHMPPESVDQYRKQIFILLFQRLQNSKTTKFIKSFLVFINLYCIKYGALALQEIFDGIQPKMFGMVLEKIIIPEIQKVSGNVEKKICAVGITKLLTECPPMMDTEYTKLWTPLLQSLIGLFELPEDDTIPDEEHFIDIEDTPGYQTAFSQLAFAGKKEHDPVGQMVNNPKIHLAQSLHKLSTACPGRVPSMVSTSLNAEALQYLQGYLQAASVTLL
Regarding B1, the binding result in assay [1] is listed as “binds”.

B2: transportin (human transportin/karyopherin β2, recombinant) (natural protein)
chain: MEYEWKPDEQGLQQILQLLKESQSPDTTIQRTVQQKLEQLNQYPDFNNYLIFVLTKLKSEDEPTRSLSGLILKNNVKAHFQNFPNGVTDFIKSECLNNIGDSSPLIRATVGILITTIASKGELQNWPDLLPKLCSLLDSEDYNTCEGAFGALQKICEDSAEILDSDVLDRPLNIMIPKFLQFFKHSSPKIRSHAVACVNQFIISRTQALMLHIDSFIENLFALAGDEEPEVRKNVCRALVMLLEVRMDRLLPHMHNIVEYMLQRTQDQDENVALEACEFWLTLAEQPICKDVLVRHLPKLIPVLVNGMKYSDIDIILLKGDVEEDETIPDSEQDIRPRFHRSRTVAQQHDEDGIEEEDDDDDEIDDDDTISDWNLRKCSAAALDVLANVYRDELLPHILPLLKELLFHHEWVVKESGILVLGAIAEGCMQGMIPYLPELIPHLIQCLSDKKALVRSITCWTLSRYAHWVVSQPPDTYLKPLMTELLKRILDSNKRVQEAACSAFATLEEEACTELVPYLAYILDTLVFAFSKYQHKNLLILYDAIGTLADSVGHHLNKPEYIQMLMPPLIQKWNMLKDEDKDLFPLLECLSSVATALQSGFLPYCEPVYQRCVNLVQKTLAQAMLNNAQPDQYEAPDKDFMIVALDLLSGLAEGLGGNIEQLVARSNILTLMYQCMQDKMPEVRQSSFALLGDLTKACFQHVKPCIADFMPILGTNLNPEFISVCNNATWAIGEISIQMGIEMQPYIPMVLHQLVEIINRPNTPKTLLENTAITIGRLGYVCPQEVAPMLQQFIRPWCTSLRNIRDNEEKDSAFRGICTMISVNPSGVIQDFIFFCDAVASWINPKDDLRDMFCKILHGFKNQVGDENWRRFSDQFPLPLKERLAAFYGV
For the molecule B2, the binding result in assay [2] is given as “binds”.

Values taken from paper PMC2132938 (The Journal of Cell Biology, 1999).
